Columns and labels:
[1] = molecular target: mCAT-1, murine cationic amino acid transporter (ecotropic receptor) (mouse (endogenous in C17.2 NSCs and NIH 3T3 fibroblasts; Mus dunni fibroblasts in the infectious center assay)) (UniProt Q09143)
[2] = molecular target: mCAT-1, murine cationic amino acid transporter (ecotropic receptor) (mouse (endogenous in C17.2 NSCs and NIH 3T3 fibroblasts; Mus dunni fibroblasts in the infectious center assay)) (UniProt Q09143); remark: listed apart in the source
[3] = molecular target: mCAT-1, murine cationic amino acid transporter (ecotropic receptor) (mouse (endogenous in C17.2 NSCs and NIH 3T3 fibroblasts; Mus dunni fibroblasts in the infectious center assay)) (UniProt Q09143); remark: listed apart in the source

UniProt Q09143, sequence (Q09143 whole entry): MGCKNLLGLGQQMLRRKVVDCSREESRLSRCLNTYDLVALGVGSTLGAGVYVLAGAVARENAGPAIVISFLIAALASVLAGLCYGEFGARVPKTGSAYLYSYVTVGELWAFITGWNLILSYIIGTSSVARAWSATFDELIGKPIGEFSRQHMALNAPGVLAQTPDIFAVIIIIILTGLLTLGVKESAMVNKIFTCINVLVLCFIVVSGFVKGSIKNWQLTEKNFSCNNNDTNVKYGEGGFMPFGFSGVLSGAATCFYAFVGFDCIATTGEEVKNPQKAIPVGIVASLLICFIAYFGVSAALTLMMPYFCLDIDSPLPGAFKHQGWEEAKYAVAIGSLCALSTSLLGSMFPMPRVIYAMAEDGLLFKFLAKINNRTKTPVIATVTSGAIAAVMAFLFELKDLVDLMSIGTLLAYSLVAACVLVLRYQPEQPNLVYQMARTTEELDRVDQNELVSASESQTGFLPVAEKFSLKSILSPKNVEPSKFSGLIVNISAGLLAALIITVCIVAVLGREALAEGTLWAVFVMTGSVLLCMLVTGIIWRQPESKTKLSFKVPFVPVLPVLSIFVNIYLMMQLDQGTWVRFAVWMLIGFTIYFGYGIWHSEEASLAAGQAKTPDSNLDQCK

Substance “CasBrE SU (surface subunit of the CasBrE Env, made from the CasES vector without the TM subunit) (domain or fragment)” has an infectious center assay: CasES+4070A-NSCs on DunniAm; infectious center efficiency (foci per 100 NSCs divided by plating efficiency) [1] of 109%, an infectious center assay: CasES+4070A-NSCs seeded on 4070A-infected dunni fibroblasts (DunniAm); vector-positive foci per 100 NSCs seeded (foci per 100 NSCs seeded) [1] of 18 and a virus titration: vector titre of CasES+4070A-NSC supernatant on 4070A-infected 3T3 cells (3T3Am, amphotropic receptor blocked) against naive 3T3 cells (orders of magnitude) [2] of over 3. The superinfection interference: reduction of the titre of the ecotropic virus Fr57E on CasES-NSCs (without 4070A) against control NSCs [3] was 1 log and the superinfection interference: reduction of the titre of the ecotropic virus Fr57E on CasES-NSCs infected with 4070A [3] was 5 logs.

Reference: publication PMC2998453
